Assay results: the supplement of paper PMC6757056
± gives the standard deviation of the averaged measurements.

B1: library; a variant is named by its letters at N, in order (parent)
chain: GCUGUCACCGGUGUAUUACCCUAGUGGUCGACCGGUCUGAUGAGUCUNNNNNNAGACGAAACAGC

What was measured:
hypoxanthine [1] = variants of: B1; test: FACS-Seq fitted mean relative fluorescence mCherry/BFP without ligand (log10 relative fluorescence); ligand: hypoxanthine (xanthine aptamer); higher = higher reporter protein expression; conditions: HEK293T, ligand present: no
Procedure, shortened: (§1)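 To measure fluorescence, a normal distribution was fitted to read counts across sorted bins. The reporter libraries were HEK293T cells transduced by lentivirus with mCherry under ribozyme-switch control and an EF1α-BFP marker, enriched and then kept with or without ligand for 48 h. Sorting used 6 mCherry/BFP bins, and bin genomic DNA was PCR-amplified and sequenced on MiSeq. Fitted means of log10(mCherry/BFP) were scaled to five spiked-in control ribozymes.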

hypoxanthine [2] = variants of: B1; test: normalized RNA/DNA level with ligand (relative to sTRSVctl = 100) (log10 (% of sTRSVctl)); ligand: hypoxanthine (xanthine aptamer); higher = less ribozyme self-cleavage, higher mRNA level; conditions: ligand concentration (+) RNA-Seq: 5 mM, HEK293T, reporter: mCherry (pCS4076), ligand present: yes
Procedure, shortened: (§2)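 Only sequences with at least 100 DNA reads were analyzed, from HEK293T cells transfected with 4 µg per 6-well well of ribozyme switch library plasmids 72 h before RNA extraction with EDTA. Any ligand was added 1 h before transfection. RNA level was defined as RNA over DNA reads, normalized to a spiked-in non-cleaving sequence or to the top sequences, then scaled and log-transformed. The top set was 25 sequences, and the scaling was ×100 followed by log10.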

hypoxanthine [3] = variants of: B1; test: normalized RNA/DNA level without ligand (relative to sTRSVctl = 100) (log10 (% of sTRSVctl)); ligand: hypoxanthine (xanthine aptamer); higher = less ribozyme self-cleavage, higher mRNA level; conditions: HEK293T, reporter: mCherry (pCS4076), ligand present: no
Procedure, shortened: as §2

hypoxanthine [4] = variants of: B1; test: FACS-Seq fitted mean relative fluorescence mCherry/BFP with ligand (log10 relative fluorescence); ligand: hypoxanthine (xanthine aptamer); ligand concentration (+) FACS-Seq: 5 mM; higher = higher reporter protein expression; conditions: HEK293T, ligand present: yes
Procedure, shortened: as §1

Row | Variant | FACS-Seq fitted mean (log10) (hypoxanthine [1]) | normalized RNA/DNA level with ligand (log10) (hypoxanthine [2]) | normalized RNA/DNA level without ligand (log10) (hypoxanthine [3]) | FACS-Seq fitted mean (log10) (hypoxanthine [4])
1 | UCUAAA | 0.325 ± 0.034 | 1.96 ± 0.035 | 1.79 ± 0.062 | 0.0897 ± 0.011
2 | UCUAAU | 0.308 ± 0.028 | 1.92 ± 0.022 | 1.79 ± 0.039 | 0.511 ± 0.032
3 | UCUAAG | 0.59 ± 0.091 | 1.9502 ± 0.0012 | 1.7 ± 0.088 | 0.678 ± 0.094
4 | GCUAAC | 0.101 ± 0.032 | 1.93 ± 0.036 | 1.66 ± 0.036 | -0.141 ± 0.025
5 | GCUAAU | 0.665 ± 0.11 | 1.93 ± 0.052 | 1.788 ± 0.012 | 0.7639 ± 0.0062
6 | GCUAAG | -0.184 ± 0.019 | 1.838 ± 0.0086 | 1.421 ± 0.0074 | 0.199 ± 0.03
7 | UCUGAA | 0.338 ± 0.025 | 1.951 ± 0.0066 | 1.68 ± 0.04 | 0.512 ± 0.022
8 | ACUCGG | 0.949 ± 0.075 | 1.87 ± 0.042 | 1.44 ± 0.12 | 0.651 ± 0.2
9 | ACUCGA | 0.714 ± 0.029 | 1.958 ± 0.017 | 1.74 ± 0.043 | 0.665 ± 0.029
10 | CCUGAG | 0.635 ± 0.045 | 1.918 ± 0.014 | 1.653 ± 0.0099 | 0.706 ± 0.046
11 | CCUAUA | 0.827 ± 0.019 | 1.945 ± 0.016 | 1.83 ± 0.029 | 0.508 ± 0.074
12 | UCGUAG | 0.444 ± 0.042 | 1.88 ± 0.031 | 1.5605 ± 0.0013 | 0.642 ± 0.051
13 | GCGGGA | 0.182 ± 0.017 | 1.97 ± 0.034 | 1.718 ± 0.012 | 0.591 ± 0.025
14 | GCGGGU | 0.731 ± 0.07 | 1.97 ± 0.048 | 1.83 ± 0.016 | 0.735 ± 0.05
15 | GCGGGG | 0.17 ± 0.0079 | 1.96 ± 0.031 | 1.56 ± 0.026 | 0.433 ± 0.03
16 | ACUGAG | 0.241 ± 0.019 | 1.818 ± 0.015 | 1.37 ± 0.04 | 0.673 ± 0.028
17 | ACUGAC | 0.249 ± 0.034 | 1.95 ± 0.11 | 1.835 ± 0.014 | 0.347 ± 0.1
18 | ACUGAU | 0.247 ± 0.08 | 1.92 ± 0.053 | 1.67 ± 0.026 | 0.431 ± 0.058
19 | ACUGAA | 0.038 ± 0.062 | 1.92 ± 0.079 | 1.737 ± 0.0053 | 0.0938 ± 0.16
20 | UCUGGA | 0.147 ± 0.0055 | 1.85 ± 0.043 | 1.6 ± 0.031 | 0.462 ± 0.029
21 | UCUGGG | 0.132 ± 0.074 | 1.97 ± 0.055 | 1.8 ± 0.04 | 0.368 ± 0.054
22 | UCUGGC | 0.393 ± 0.029 | 1.94 ± 0.0059 | 1.87 ± 0.044 | 0.508 ± 0.055
23 | ACUCUG | 0.335 ± 0.0076 | 1.89 ± 0.054 | 1.516 ± 0.0021 | 0.677 ± 0.02
24 | ACUCUA | 0.438 ± 0.061 | 1.947 ± 0.0039 | 1.86 ± 0.055 | 0.585 ± 0.062

Row | Variant | FACS-Seq fitted mean (log10) (hypoxanthine [1]) | normalized RNA/DNA level with ligand (log10) (hypoxanthine [2]) | normalized RNA/DNA level without ligand (log10) (hypoxanthine [3]) | FACS-Seq fitted mean (log10) (hypoxanthine [4])
25 | ACUCUU | 0.342 ± 0.07 | 1.95 ± 0.029 | 1.84 ± 0.056 | 0.517 ± 0.056
26 | CCGGGC | 0.124 ± 0.013 | 1.99 ± 0.074 | 1.88 ± 0.019 | 0.382 ± 0.068
27 | CCGGGA | 0.607 ± 0.06 | 1.97 ± 0.022 | 1.82 ± 0.037 | 0.674 ± 0.071
28 | CCUACA | 0.617 ± 0.024 | 1.975 ± 0.01 | 1.9 ± 0.015 | 0.603 ± 0.01
29 | GCUUUG | -0.186 ± 0.032 | 1.91 ± 0.048 | 1.56 ± 0.018 | 0.36 ± 0.05
30 | GCUUUC | 0.909 ± 0.14 | 1.959 ± 0.011 | 1.835 ± 0.016 | 0.723 ± 0.024
31 | GCUUUA | 0.789 ± 0.044 | 1.8872 ± 0.00046 | 1.93 ± 0.027 | 0.795 ± 0.071
32 | GCGUUG | 0.142 ± 0.042 | 1.78 ± 0.034 | 1.3 ± 0.027 | 0.658 ± 0.021
33 | GCGUUA | 0.535 ± 0.018 | 1.94 ± 0.037 | 1.65 ± 0.073 | 0.594 ± 0.022
34 | UCUUGA | 0.296 ± 0.011 | 1.94 ± 0.035 | 1.51 ± 0.036 | 0.572 ± 0.0065
35 | CGAAAU | 0.0751 ± 0.04 | 1.91 ± 0.049 | 1.73 ± 0.021 | 0.0235 ± 0.19
36 | CGAAAA | 0.531 ± 0.032 | 1.89 ± 0.062 | 1.6917 ± 0.00075 | 0.67 ± 0.045
37 | CGAAAC | 0.667 ± 0.046 | 1.92 ± 0.063 | 1.732 ± 0.0036 | 0.6 ± 0.081
38 | CCGUGU | 0.225 ± 0.038 | 1.89 ± 0.12 | 1.69 ± 0.017 | 0.616 ± 0.025
39 | CCGUGA | 0.311 ± 0.044 | 1.973 ± 0.0073 | 1.565 ± 0.012 | 0.64 ± 0.017
40 | CCGUGG | 0.237 ± 0.043 | 1.823 ± 0.0069 | 1.23 ± 0.16 | 0.718 ± 0.053
41 | ACUCAU | 0.604 ± 0.014 | 1.95 ± 0.042 | 1.84 ± 0.026 | 0.7156 ± 0.0036
42 | CGAACC | 0.676 ± 0.041 | 1.94 ± 0.035 | 1.89 ± 0.02 | 0.635 ± 0.062
43 | GCUGUG | 0.345 ± 0.079 | 1.93 ± 0.025 | 1.76 ± 0.022 | 0.539 ± 0.081
44 | ACGUUG | -0.189 ± 0.0052 | 1.79 ± 0.033 | 1.28 ± 0.019 | 0.488 ± 0.021
45 | GCUUGG | -0.174 ± 0.029 | 1.83 ± 0.036 | 1.374 ± 0.0045 | 0.326 ± 0.038
46 | GCUUGA | 0.378 ± 0.011 | 1.924 ± 0.018 | 1.817 ± 0.0041 | 0.53 ± 0.017
47 | ACGGCG | -0.0504 ± 0.0018 | 1.91 ± 0.025 | 1.42 ± 0.015 | 0.466 ± 0.082
48 | GCGGAU | 0.308 ± 0.01 | 1.863 ± 0.0028 | 1.48 ± 0.039 | 0.547 ± 0.08

Row | Variant | FACS-Seq fitted mean (log10) (hypoxanthine [1]) | normalized RNA/DNA level with ligand (log10) (hypoxanthine [2]) | normalized RNA/DNA level without ligand (log10) (hypoxanthine [3]) | FACS-Seq fitted mean (log10) (hypoxanthine [4])
49 | GCGGAC | 0.00746 ± 0.015 | 1.75 ± 0.046 | 1.31 ± 0.032 | 0.546 ± 0.037
50 | GCGGAA | 0.328 ± 0.11 | 1.88 ± 0.033 | 1.53 ± 0.069 | 0.67 ± 0.06
51 | GCGGAG | -0.112 ± 0.056 | 1.66 ± 0.054 | 1.24 ± 0.052 | 0.449 ± 0.1
52 | GCUCAA | 0.9407 ± 0.005 | 1.92 ± 0.041 | 1.71 ± 0.076 | 0.495 ± 0.11
53 | ACGUGU | 0.135 ± 0.003 | 1.87 ± 0.047 | 1.4 ± 0.027 | 0.682 ± 0.074
54 | ACGUGG | 0.0467 ± 0.0087 | 1.54 ± 0.018 | 1.13 ± 0.016 | 0.697 ± 0.018
55 | ACGUGA | -0.0934 ± 0.0088 | 1.808 ± 0.01 | 1.17 ± 0.023 | 0.256 ± 0.055
56 | GCGUAC | -0.0412 ± 0.02 | 1.82 ± 0.069 | 1.33 ± 0.025 | 0.4627 ± 0.0021
57 | GCGUAG | -0.175 ± 0.014 | 1.566 ± 0.0039 | 1.15 ± 0.062 | 0.539 ± 0.027
58 | GCGUAU | 0.549 ± 0.031 | 1.83 ± 0.037 | 1.49 ± 0.046 | 0.824 ± 0.043
59 | UCGGUA | 0.215 ± 0.024 | 1.912 ± 0.014 | 1.562 ± 0.014 | 0.485 ± 0.04
60 | UCUCAG | 0.173 ± 0.045 | 1.82 ± 0.061 | 1.34 ± 0.038 | 0.474 ± 0.094
61 | ACGGGA | 0.166 ± 0.0066 | 1.84 ± 0.024 | 1.371 ± 0.0073 | 0.623 ± 0.022
62 | ACGGGC | 0.13 ± 0.011 | 1.94 ± 0.035 | 1.79 ± 0.035 | 0.4948 ± 0.0031
63 | ACGGGU | 0.0468 ± 0.038 | 1.79 ± 0.025 | 1.33 ± 0.07 | 0.569 ± 0.011
64 | ACGGGG | -0.145 ± 0.048 | 1.81 ± 0.035 | 1.33 ± 0.058 | 0.5396 ± 0.0011
65 | ACGUAA | 0.16 ± 0.018 | 1.86 ± 0.072 | 1.491 ± 0.0093 | 0.4284 ± 0.0027
66 | ACGUAG | -0.209 ± 0.01 | 1.61 ± 0.021 | 1.16 ± 0.054 | 0.574 ± 0.028
67 | UCUUUA | 0.261 ± 0.0068 | 1.958 ± 0.004 | 1.9 ± 0.085 | 0.327 ± 0.02
68 | UCUAGC | 0.834 ± 0.0096 | 1.95 ± 0.023 | 1.85 ± 0.032 | 0.666 ± 0.062
69 | UCUAGA | 0.927 ± 0.07 | 1.91 ± 0.028 | 1.69 ± 0.056 | 0.0154 ± 0.086
70 | GCGGUA | 0.439 ± 0.019 | 1.943 ± 0.0021 | 1.68 ± 0.036 | 0.677 ± 0.034
71 | GCGGUG | 0.212 ± 0.007 | 1.79 ± 0.053 | 1.41 ± 0.097 | 0.623 ± 0.019
